Starred links: 1 amine or outer side, 2 acyl side, 3 side chain; linkers in the order of their positions; H or OH if unused. Non-standard residues stand in square brackets, D forms with d. Groups on a side chain read outwards from the residue. No end group written: not given here. *: point of attachment. C20 diacid = O=C(O)CCCCCCCCCCCCCCCCCCC(=O)*; C18 diacid = O=C(O)CCCCCCCCCCCCCCCCC(=O)*; γGlu = O=C(O)[C@H](CCC(=O)[*:2])N[*:1]; αMeF = C[C@](N)(Cc1ccccc1)C(=O)O; AEEA = NCCOCCOCC(=O)O; Aib = CC(C)(N)C(=O)O
Assays:
[1] = target: human GLP-1 receptor (hGLP-1R) (human, UniProt P43220 24-463); experiment: cell-based or functional assay
[2] = target: human glucagon receptor (hGCGR) (human, UniProt P47871 26-477); experiment: cell-based or functional assay
Sequence of human glucagon receptor (hGCGR) (P47871 26-477): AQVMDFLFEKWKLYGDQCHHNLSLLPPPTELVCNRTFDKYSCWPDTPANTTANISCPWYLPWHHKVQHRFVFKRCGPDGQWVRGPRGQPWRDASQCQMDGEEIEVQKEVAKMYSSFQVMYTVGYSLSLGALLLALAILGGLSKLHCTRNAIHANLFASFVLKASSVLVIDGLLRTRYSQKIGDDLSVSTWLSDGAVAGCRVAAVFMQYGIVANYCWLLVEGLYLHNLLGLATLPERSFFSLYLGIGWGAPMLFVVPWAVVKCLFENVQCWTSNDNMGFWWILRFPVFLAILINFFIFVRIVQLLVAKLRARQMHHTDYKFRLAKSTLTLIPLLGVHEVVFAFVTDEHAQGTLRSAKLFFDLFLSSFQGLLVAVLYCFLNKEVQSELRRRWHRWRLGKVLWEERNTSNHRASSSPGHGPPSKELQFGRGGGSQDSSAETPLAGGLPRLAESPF

Binder | hGLP-1R EC50 (pM) [1] | hGluc-R EC50 (pM) [2]
H[Aib]QGTFTSDVSK[αMeF]LDTK([AEEA-AEEA-γGlu-C20 diacid])RARDFVQWLLR[Aib]A-OH (N-terminus assumed; SMILES CC(C)C[C@H](NC(=O)[C@H](Cc1c[nH]c2ccccc12)NC(=O)[C@H](CCC(N)=O)NC(=O)[C@@H](NC(=O)[C@H](Cc1ccccc1)NC(=O)[C@H](CC(=O)O)NC(=O)[C@H](CCCNC(=N)N)NC(=O)[C@H](C)NC(=O)[C@H](CCCNC(=N)N)NC(=O)[C@H](CCCCNC(=O)COCCOCCNC(=O)COCCOCCNC(=O)CC[C@H](NC(=O)CCCCCCCCCCCCCCCCCCC(=O)O)C(=O)O)NC(=O)[C@@H](NC(=O)[C@H](CC(=O)O)NC(=O)[C@H](CC(C)C)NC(=O)[C@](C)(Cc1ccccc1)NC(=O)[C@H](CCCCN)NC(=O)[C@H](CO)NC(=O)[C@@H](NC(=O)[C@H](CC(=O)O)NC(=O)[C@H](CO)NC(=O)[C@@H](NC(=O)[C@H](Cc1ccccc1)NC(=O)[C@@H](NC(=O)CNC(=O)[C@H](CCC(N)=O)NC(=O)C(C)(C)NC(=O)[C@@H](N)Cc1c[nH]cn1)[C@@H](C)O)[C@@H](C)O)C(C)C)[C@@H](C)O)C(C)C)C(=O)N[C@@H](CC(C)C)C(=O)N[C@@H](CCCNC(=N)N)C(=O)NC(C)(C)C(=O)N[C@@H](C)C(=O)O) [Peptide 502] | 82.1 pM | 175 pM
H[Aib]QGTFTSDVSK[αMeF]LDTK([AEEA-AEEA-γGlu-C20 diacid])RAQDFVQWLLR[Aib]A-OH (N-terminus assumed; SMILES CC(C)C[C@H](NC(=O)[C@H](Cc1c[nH]c2ccccc12)NC(=O)[C@H](CCC(N)=O)NC(=O)[C@@H](NC(=O)[C@H](Cc1ccccc1)NC(=O)[C@H](CC(=O)O)NC(=O)[C@H](CCC(N)=O)NC(=O)[C@H](C)NC(=O)[C@H](CCCNC(=N)N)NC(=O)[C@H](CCCCNC(=O)COCCOCCNC(=O)COCCOCCNC(=O)CC[C@H](NC(=O)CCCCCCCCCCCCCCCCCCC(=O)O)C(=O)O)NC(=O)[C@@H](NC(=O)[C@H](CC(=O)O)NC(=O)[C@H](CC(C)C)NC(=O)[C@](C)(Cc1ccccc1)NC(=O)[C@H](CCCCN)NC(=O)[C@H](CO)NC(=O)[C@@H](NC(=O)[C@H](CC(=O)O)NC(=O)[C@H](CO)NC(=O)[C@@H](NC(=O)[C@H](Cc1ccccc1)NC(=O)[C@@H](NC(=O)CNC(=O)[C@H](CCC(N)=O)NC(=O)C(C)(C)NC(=O)[C@@H](N)Cc1c[nH]cn1)[C@@H](C)O)[C@@H](C)O)C(C)C)[C@@H](C)O)C(C)C)C(=O)N[C@@H](CC(C)C)C(=O)N[C@@H](CCCNC(=N)N)C(=O)NC(C)(C)C(=O)N[C@@H](C)C(=O)O) [Peptide 500] | 102 pM | 101 pM
H[Aib]QGTFTSDVSK[αMeF]LESK([AEEA-AEEA-γGlu-C20 diacid])RAQDFVRWLLE[Aib]K-OH (N-terminus assumed; SMILES CC(C)C[C@H](NC(=O)[C@H](Cc1c[nH]c2ccccc12)NC(=O)[C@H](CCCNC(=N)N)NC(=O)[C@@H](NC(=O)[C@H](Cc1ccccc1)NC(=O)[C@H](CC(=O)O)NC(=O)[C@H](CCC(N)=O)NC(=O)[C@H](C)NC(=O)[C@H](CCCNC(=N)N)NC(=O)[C@H](CCCCNC(=O)COCCOCCNC(=O)COCCOCCNC(=O)CC[C@H](NC(=O)CCCCCCCCCCCCCCCCCCC(=O)O)C(=O)O)NC(=O)[C@H](CO)NC(=O)[C@H](CCC(=O)O)NC(=O)[C@H](CC(C)C)NC(=O)[C@](C)(Cc1ccccc1)NC(=O)[C@H](CCCCN)NC(=O)[C@H](CO)NC(=O)[C@@H](NC(=O)[C@H](CC(=O)O)NC(=O)[C@H](CO)NC(=O)[C@@H](NC(=O)[C@H](Cc1ccccc1)NC(=O)[C@@H](NC(=O)CNC(=O)[C@H](CCC(N)=O)NC(=O)C(C)(C)NC(=O)[C@@H](N)Cc1c[nH]cn1)[C@@H](C)O)[C@@H](C)O)C(C)C)C(C)C)C(=O)N[C@@H](CC(C)C)C(=O)N[C@@H](CCC(=O)O)C(=O)NC(C)(C)C(=O)N[C@@H](CCCCN)C(=O)O) [Peptide 504] | 124 pM | 551 pM
H[Aib]QGTFTSDVSK[αMeF]LDTK([AEEA-AEEA-γGlu-C20 diacid])RAQDFVRWLLE[Aib]K-OH [Peptide 503] | 81.2 pM | 84.9 pM
H[Aib]QGTFTSDVSK[αMeF]LDTK([AEEA-AEEA-γGlu-C18 diacid])RARDFVQWLLR[Aib]A-OH (N-terminus assumed; SMILES CC(C)C[C@H](NC(=O)[C@H](Cc1c[nH]c2ccccc12)NC(=O)[C@H](CCC(N)=O)NC(=O)[C@@H](NC(=O)[C@H](Cc1ccccc1)NC(=O)[C@H](CC(=O)O)NC(=O)[C@H](CCCNC(=N)N)NC(=O)[C@H](C)NC(=O)[C@H](CCCNC(=N)N)NC(=O)[C@H](CCCCNC(=O)COCCOCCNC(=O)COCCOCCNC(=O)CC[C@H](NC(=O)CCCCCCCCCCCCCCCCC(=O)O)C(=O)O)NC(=O)[C@@H](NC(=O)[C@H](CC(=O)O)NC(=O)[C@H](CC(C)C)NC(=O)[C@](C)(Cc1ccccc1)NC(=O)[C@H](CCCCN)NC(=O)[C@H](CO)NC(=O)[C@@H](NC(=O)[C@H](CC(=O)O)NC(=O)[C@H](CO)NC(=O)[C@@H](NC(=O)[C@H](Cc1ccccc1)NC(=O)[C@@H](NC(=O)CNC(=O)[C@H](CCC(N)=O)NC(=O)C(C)(C)NC(=O)[C@@H](N)Cc1c[nH]cn1)[C@@H](C)O)[C@@H](C)O)C(C)C)[C@@H](C)O)C(C)C)C(=O)N[C@@H](CC(C)C)C(=O)N[C@@H](CCCNC(=N)N)C(=O)NC(C)(C)C(=O)N[C@@H](C)C(=O)O) [Peptide 501] | 26.5 pM | 75.6 pM

Continued, values first:

hGLP-1R EC50 (pM) [1] | hGluc-R EC50 (pM) [2] | Binder
52.9 pM | 86.6 pM | H[Aib]QGTFTSDVSK[αMeF]LDTK([AEEA-AEEA-γGlu-C20 diacid])RARDFVAWLLE[Aib]G-NH2 [Peptide 507]
67.9 pM | 2800 pM | H[Aib]QGTFTSDVSK[αMeF]LESK([AEEA-AEEA-γGlu-C20 diacid])RAQDFVRWLVE[Aib]G-NH2 (N-terminus assumed; SMILES CC(C)C[C@H](NC(=O)[C@H](Cc1c[nH]c2ccccc12)NC(=O)[C@H](CCCNC(=N)N)NC(=O)[C@@H](NC(=O)[C@H](Cc1ccccc1)NC(=O)[C@H](CC(=O)O)NC(=O)[C@H](CCC(N)=O)NC(=O)[C@H](C)NC(=O)[C@H](CCCNC(=N)N)NC(=O)[C@H](CCCCNC(=O)COCCOCCNC(=O)COCCOCCNC(=O)CC[C@H](NC(=O)CCCCCCCCCCCCCCCCCCC(=O)O)C(=O)O)NC(=O)[C@H](CO)NC(=O)[C@H](CCC(=O)O)NC(=O)[C@H](CC(C)C)NC(=O)[C@](C)(Cc1ccccc1)NC(=O)[C@H](CCCCN)NC(=O)[C@H](CO)NC(=O)[C@@H](NC(=O)[C@H](CC(=O)O)NC(=O)[C@H](CO)NC(=O)[C@@H](NC(=O)[C@H](Cc1ccccc1)NC(=O)[C@@H](NC(=O)CNC(=O)[C@H](CCC(N)=O)NC(=O)C(C)(C)NC(=O)[C@@H](N)Cc1c[nH]cn1)[C@@H](C)O)[C@@H](C)O)C(C)C)C(C)C)C(=O)N[C@H](C(=O)N[C@@H](CCC(=O)O)C(=O)NC(C)(C)C(=O)NCC(N)=O)C(C)C) [Peptide 508]
42.1 pM | 191 pM | H[Aib]QGTFTSDVSK[αMeF]LDTK([AEEA-AEEA-γGlu-C20 diacid])RAQDFVQWLLE[Aib]K-NH2 (N-terminus assumed; SMILES CC(C)C[C@H](NC(=O)[C@H](Cc1c[nH]c2ccccc12)NC(=O)[C@H](CCC(N)=O)NC(=O)[C@@H](NC(=O)[C@H](Cc1ccccc1)NC(=O)[C@H](CC(=O)O)NC(=O)[C@H](CCC(N)=O)NC(=O)[C@H](C)NC(=O)[C@H](CCCNC(=N)N)NC(=O)[C@H](CCCCNC(=O)COCCOCCNC(=O)COCCOCCNC(=O)CC[C@H](NC(=O)CCCCCCCCCCCCCCCCCCC(=O)O)C(=O)O)NC(=O)[C@@H](NC(=O)[C@H](CC(=O)O)NC(=O)[C@H](CC(C)C)NC(=O)[C@](C)(Cc1ccccc1)NC(=O)[C@H](CCCCN)NC(=O)[C@H](CO)NC(=O)[C@@H](NC(=O)[C@H](CC(=O)O)NC(=O)[C@H](CO)NC(=O)[C@@H](NC(=O)[C@H](Cc1ccccc1)NC(=O)[C@@H](NC(=O)CNC(=O)[C@H](CCC(N)=O)NC(=O)C(C)(C)NC(=O)[C@@H](N)Cc1c[nH]cn1)[C@@H](C)O)[C@@H](C)O)C(C)C)[C@@H](C)O)C(C)C)C(=O)N[C@@H](CC(C)C)C(=O)N[C@@H](CCC(=O)O)C(=O)NC(C)(C)C(=O)N[C@@H](CCCCN)C(N)=O) [Peptide 505]
162 pM | 149 pM | H[Aib]QGTFTSDVSK[αMeF]LDTK([AEEA-AEEA-γGlu-C20 diacid])RARDFVAWLLE[Aib]G-OH (N-terminus assumed; SMILES CC(C)C[C@H](NC(=O)[C@H](Cc1c[nH]c2ccccc12)NC(=O)[C@H](C)NC(=O)[C@@H](NC(=O)[C@H](Cc1ccccc1)NC(=O)[C@H](CC(=O)O)NC(=O)[C@H](CCCNC(=N)N)NC(=O)[C@H](C)NC(=O)[C@H](CCCNC(=N)N)NC(=O)[C@H](CCCCNC(=O)COCCOCCNC(=O)COCCOCCNC(=O)CC[C@H](NC(=O)CCCCCCCCCCCCCCCCCCC(=O)O)C(=O)O)NC(=O)[C@@H](NC(=O)[C@H](CC(=O)O)NC(=O)[C@H](CC(C)C)NC(=O)[C@](C)(Cc1ccccc1)NC(=O)[C@H](CCCCN)NC(=O)[C@H](CO)NC(=O)[C@@H](NC(=O)[C@H](CC(=O)O)NC(=O)[C@H](CO)NC(=O)[C@@H](NC(=O)[C@H](Cc1ccccc1)NC(=O)[C@@H](NC(=O)CNC(=O)[C@H](CCC(N)=O)NC(=O)C(C)(C)NC(=O)[C@@H](N)Cc1c[nH]cn1)[C@@H](C)O)[C@@H](C)O)C(C)C)[C@@H](C)O)C(C)C)C(=O)N[C@@H](CC(C)C)C(=O)N[C@@H](CCC(=O)O)C(=O)NC(C)(C)C(=O)NCC(=O)O) [Peptide 506]
